Data on one molecule can be found in patent publication US20140314784A1.

Test [1] addresses KO_1st loop. The experiment in a line: flow cytometry, CHO cells transiently transfected with the construct, 6C7 at 0.1 µg/ml, dot plot SSC-A against PE-A. (Flow cytometry measures light scatter and fluorescence of single cells or particles in a stream.)
Test [2] concerns the target KO_3rd loop. Described as above.
Test [3] has as its target KO_N-term. The description is as above.
The target of test [4] is KO_1st loop. Briefly: flow cytometry, CHO cells transiently transfected with the construct, 6C7 at 0.05 µg/ml, dot plot SSC-A against PE-A.
For test [5], the target named is KO_3rd loop. Described as above.
For test [6], the target named is KO_N-term. The description is as above.

B1: 6C7 (antibody, V domains shown)
VH: QVQLVESGGGVVQPGRSLRLSCAASGFTFSNYVMHWVRQAPGKGLEWVAVIWYDGSNKYYADSVKGRFTISRDNSKNTLSLQMNSLRAEDTAVYYCERGEGYYGSGSRYRGYYYGMDVWGQGTTVTVSS
VL: DIQMTQSPSSLSASVGDRVTITCRASQGIRTDLGWYQQKPGKAPKRLIYAASSLQSGVPSRFSGSGSGTEFTLTISSLQPEDFATYYCLQHNSYPRTFGQGTKVEIK
Turning to B1, the number in the positive gate (percent of cells) in test [1] came to 50.1; in test [2], 52.8; in test [3] it was 52.8; in test [4], 45.2; in test [5], 47; in test [6] it was 49.2.
